Results reported in the nanobody polyreactivity screen of Harvey et al. (2022).

Assay: yeast display, Sf9 membrane polyspecificity reagent, FACS + sequencing; frameworks hold sequencing errors
In short: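 A synthetic nanobody library was expressed on Saccharomyces cerevisiae BJ5465 by galactose induction for 36–48 hours. The library was stained for 1 hour at 4 °C with 10% biotinylated, detergent-solubilized Sf9 membrane reagent and enriched with streptavidin microbeads before FACS. Low and high (top ~1%) gates were set on anti-HA fluorescence for expression and streptavidin fluorescence for reagent binding, and each polyreactivity label reflects the gate of origin.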

Sequence | polyreactivity (PSR sort gate)
QVQLVESGGGLVQAGGRLRLSCTASGRPLYNYTMGWYRQAPGKERELVATINFSGGSTYYADSVKGRFTISRDNAKNTVYLQMNSLKQEDTAVYYCTARGYHYAYKGAYLGDDYWGQGTQVTVSS | low polyreactivity
QVQLVESGGGLVQAGGRLRLSSAASGLTFPYYAMGWYRQAPGKERELVAVITTSTGTTYYADSVKGRFTISRDNAKNTVYLQMNSLKPEVTAVYYCATDTGAYWYSLYDYWGQGTQVTVSS | low polyreactivity
QVQLVESGGGLVQAGGRLRLSSAASGRIFASNAMGWYRQAPGKERELVARIDSGGITNYADSVKGRFTISRDNAKNTVYFQMNSLKPEDTGVYYCAKSVGWWSPPLGVYWVQGTQVTVSS | low polyreactivity
QVQLVESGGGLVQAGGRLRLSSAASGRTFYPNAMGWYRKAPLKERELVAAISGSGGSTYYADSVKGRFTISRDNAKNTVYLQMNSLKPEDTAVYYCAAYPEYLVGYRYGSWGQGTQVTVSS | high polyreactivity
QVQLVESGGGLVQAGGRLRLTCAASASIFYYYTMGWYRQAPGKERELVAAINSIGGRTYYADSVKGRFTISRDNAKNTVYLQMNSLKQEDNAVYYCNAVLDPGDQDDYDYWGQGTQVTLSS | low polyreactivity
QVQLVESGGGLVQAGGRLRLTCAASGYIFDVNAMGWYRHAPGKERELVAAISQRGTRTYYADSVKGRFTISRDNAKNSVYLQMNSLKPEDTAVYFCNRGGWRQYDSWVQGTQVTVSS | high polyreactivity
QVQLVESGGGLVQAGGRLSLSCAASGSIFNQYAMGWHRQAPGKERELVAAISSDGGRTYYADSVKGRFTISRDNAKITVYLQMNSLKPEDTAVYYCNADFPAYGLECDVYWGQGTQVTVSS | low polyreactivity
QVQLVESGGGLVQAGGRRRLICAASGSTFVRNAMGWYRQAPGKERELVATISSGGGTKYADSVKGRFTISRDNAKNTVYLQMNSLKPEDTAVYYCAARYRSYAVRLRGYDYWGQGTQVTVSS | high polyreactivity
QVQLVESGGGLVQAGGSGRLSCAASGRTTRDYAMGWYRQAPGKERELVAAIRWRGVSTYYADSVKGRFTISRDNAKNTVDVQMNSLKPEDTAVYYCAKRESVSTSAGKGAMDSWGQGTQVTVSS | high polyreactivity
QVQLVESGGGLVQAGGSGRLSCAASGSILPSYAMGWYRQAPGKERELVAAISRRGGSTYYADSVKGRFSISRDNAKNTVYLQMNSLKPEDTAVYYCAAGSYSGYDYWGQGTQVTVSS | low polyreactivity
QVQLVESGGGLVQAGGSHRFRCAASGSTIVSDAMGLYRHAPGKERELDATISWRGGSTYYADSVKGRFTISRDNAKNTVYLQMNSLKPEDTAVYDCAADLWHSQYYYGYEYWGQGTQVNVSS | low polyreactivity
QVQLVESGGGLVQAGGSHRLSCAASGFIFGRNAMGWYRQATGKDRELVDANTRSGGSTYYADSVKGRFTISRDNAKNTVYLQLYSLKPEDTAVYYCAKGLFTWGVFRVGIRDDYWGQGTQVTVSS | high polyreactivity
QVQLVESGGGLVQAGGSHRLSCAASGFTFTYYAMGWYRQAPGKERELVADITSGGGTNYADSVKGRFTISRDNAKNTVFLQMNSLKPEDTAVYYCAADAYHQGMDYWGQGTQVTVSS | low polyreactivity
QVQLVESGGGLVQAGGSHRLSCAASGGTFSNNAMGWYRQAPGKERELVAAISNSGGRTYYADSVKGRFTISRDNAKNTVYLQMNSLKPEDTAVYYCNARYRLMDYWGQGTQVTVSL | high polyreactivity
QVQLVESGGGLVQAGGSHRLSCAASGITFTVNSMGWYRQAPGKERELVAAISNDGSTYYADSVKGRFTISRDNAKNTVYLQMNSLKPEDTAVYYCAADTWDDFGPYGYDYWGQGTHVTVSS | low polyreactivity
QVQLVESGGGLVQAGGSHRLSCAASGLIFPYNAMGWYRQAPGKERELVAAIDSGVTTYYADSVKGRFTISRDNAKNTVYLQMNSLKPEDTAVYYCAADGLPGPEGDSWGQGTQVTVSS | low polyreactivity
QVQLVESGGGLVQAGGSHRLSCAASGLTFFTYAMGWYRQAPGKERELVATISSRGGRTYYADSVKGRFTISRDNAKNTVYLQMNSLKPEDTAVYYCAARGVWKSKHNYWGQGTQVTVSS | high polyreactivity
QVQLVESGGGLVQAGGSHRLSCAASGRIFDKNAMGWYRQAPGKERELVAAINRSGGRTYYADSVKGRFTISRDNAKNTVYLQMNSLKPEDTAVYYCAADTQGSRYDYWGQGTQVTVSS | high polyreactivity
QVQLVESGGGLVQAGGSHRLSCAASGRIFTSNTMGWYRQAPGKERELVAAITSSGGSMYYADSVKGRFTISRDNAKNTVYLQMNSLIPEDTAVYYCAADTIGYHYWYDYWGQGTQVTVSS | low polyreactivity
QVQLVESGGGLVQAGGSHRLSCAASGRIYYYTMGWYRQAPGKERELVATITSSGSSTYYADSVKGRFTISRDNAKNTFYLQLNRLKPEDTAVYYCAAAGGGVRKVWGGSRYGYWGQGTQVTVSS | high polyreactivity
QVQLVESGGGLVQAGGSHRLSCAASGRTFCKYAMGWYRQAPGKERELVAAITAGGGTKYADSVKGRFTISRDNAKNTVYLQMNSLKPEDTAVYYCAAASGSRRHGYWGQGTQVTVSS | high polyreactivity

Sequence | polyreactivity (PSR sort gate)
QVQLVESGGGLVQAGGSHRLSCAASGRTFVVYAMGWYRQAPGKERELVARIRWRDVSTYYADSVKGRFTISRDNAKTTVYLQMNSLKPEDTAVYYCAARSYTGGGRLYYWGQGTQVTVSS | high polyreactivity
QVQLVESGGGLVQAGGSHRLSCAASGSIFFSNARGWYRQAPGNERELFAAITWTGGSTYYADSVKGRFTISRDNAKNTVYLQMNSLKPEDTAVYYCNAAHQRDWYYAIYHLYYSPYYYWGQGSQVTVSS | low polyreactivity
QVQLVESGGGLVQAGGSHRLSCAASGSIFRQNAMGWYRQAPGKERELVAAITRGGGGTTYYADSVKGRFTISRDNAKNTVYLQMNSLKPEDTAVYYCAKAYEVRVEVDYWGQGTQVTVSS | low polyreactivity
QVQLVESGGGLVQAGGSHRLSCAASGSIFYFNAMGWYRQAPGKEREFVAGITTSGGSTYYADSVKGRFTISRDNAKNTVYLQMNSLKPEDTAVYYCNIVWVYAVTPSSWYKYGSWGQGTQVTVSS | low polyreactivity
QVQLVESGGGLVQAGGSHRLSCAASGSTFDTYPMGWYRQEPGKERELVAAISRSGTSTYYADSVKGRFTISRDNAKNTVYLQMKSLKPEDTAVYYCAAYGPRVNGEIGREYYYWGQGTQVTVSS | low polyreactivity
QVQLVESGGGLVQAGGSHRLSCAASGSTFFRNAKGWYSQAPGKEREWVAANSYSGDSTYYADSVKGRFTISRDNEKNTVSLQMNRLKPDDTAVYYSNAVLFRYRYNYWGQGTQVNVSS | high polyreactivity
QVQLVESGGGLVQAGGSHRLSCAASGSTFFSYAMGWYRQAPGKERELVAAITSNGGTTHYADSVKGRFTISRDNAKNTVYLQMNSLKPEDTAVYYCAKAQGHVRGSRGLQGGRYDYWGQGTQVTVSS | low polyreactivity
QVQLVESGGGLVQAGGSHRLSCAASGSTFVVYSLGWYRQAPGKERELVAAITSSGGRTYYADSVKGRFTISRDNAKNTVYLQMNSLKPDDTAVYYGNAVYSRQSSNKGEYWGQGTQVTVSW | high polyreactivity
QVQLVESGGGLVQAGGSHRLSCAASGTFKAYAMGWYRQAPGKERELVAVISNGGSTYYADSVKGRFTISRDNAKNTVYLQMNSLKPEDTAVYYCAARRGWYAYRFLSGSRLHYYWGQGTQVTVSS | high polyreactivity
QVQLVESGGGLVQAGGSHRLSCAASRRIFGYNAMGWYRKAPGKERELVAAIRYSGGRTYYADSVKGRFTISRDNAKNTVYLQMNSLKPEDTAVYYCAATAFDKLKVWYYYWGQGTQVTVSS | high polyreactivity
QVQLVESGGGLVQAGGSHRLSCAAYGYTIPFYTMGWYRQAPGKERDLVAAINSGGSTYYADSVKGRFTISRDNAKNTVYLQMNTLKPEDTAVYYCAVEGGFRVRYQAQYRYYYWGQGTQVIVSS | high polyreactivity
QVQLVESGGGLVQAGGSHRLSCASSGIIFAWYVMGWSRQAPGKDSELVAAITQSGGSTFYADSVKGRFTISRDNAKNTVYLQMNSLKPEDTEVYYCNTEDFFNVPEMDSWGQGTQVTVSS | low polyreactivity
QVQLVESGGGLVQAGGSHRLSCSGSGFSLTLNAMGWYRQAPGKERELVAAISGNGGRTYYADSVKGRFTISRDNAKNTVYLQMNSLKPEDTAVYYCAARYTRTPSDCSTRKFGYGYWGQRTQVTVSS | high polyreactivity
QVQLVESGGGLVQAGGSILLICSASGGNFYVYSMGWYRQAPGKERELVAAIRYSGGSTCYADSVKGRFTISRDNAKNTVYLLMNSLKTEYTAVYYCATVGWPFYPARDYDYSGQGTQVTVSS | low polyreactivity
QVQLVESGGGLVQAGGSILLSCAASGSIYGTNTMGWYRQAPGKEREFVAVITGSTTSTYYADSVKGLFTISRDNAKNTVYLQMNSLKPEDTAVYYCATDYWWDLFEYDYWGQGTQVTVSS | high polyreactivity
QVQLVESGGGLVQAGGSIRISCAPSGRTFNYYAIGWNRPAPAQEREFVAAITKSCGSTYYADSVKGRFTISRDNAKYTVYLQMNSVKPEDTAVYYCATTHRYRVVYWRQGTQVTVSS | high polyreactivity
QVQLVESGGGLVQAGGSIRISCEASGITFGRNPMGCDRQAPGKERELVDAIDSGGNTYADSVKGRFTISRDNAKNTFYLQMNRLIPEDTAVYYCAVDGGEFSSYGYWGQGTQVTVSS | low polyreactivity
QVQLVESGGGLVQAGGSIRLICAASGFIISWYAMGWYRQAPGKERELFAAISSGGSTTYADSVKGRFTISRDNAKNTVYLQMNSLKPEDTAVYYCNADQVYGYNYWGQGTQVTVSS | high polyreactivity
QVQLVESGGGLVQAGGSIRLICAASGRNYAVYAMGWYRQAPGKERELVAAITYGGGRTYYADSVKGRFTISRDNEKNTVYLKLNSMNPEDTAVYFCAADYFGTDYDYWGQGTHVTVSS | low polyreactivity
QVQLVESGGGLVQAGGSIRLICAASGRTFSRYAMGWYRQAPGKERELVAAITFRFGRTYYADSVKGRFTISRDNAKNTVYLQMNSMKPEDTSVYYCAAETKYSGAYPYDYWGQGTQVPVSS | high polyreactivity
